Positions count from the first letter of the chain named.
B1: Table 1 Line # 39 antibody (SP_B_cell) (antibody, human IgG4, V domains shown)
VH: EVQLVESGGDLVQPGRSLRLSCAASGFTFDDYAMYWVRQTPGKGLEWVSRITWNSGSIGYAGSVQGRFTISRDNAKNSLYLQMNSLRAEDSALYYCAKDIGGSYLGFDYWGQGTLVTVSS
VL: EIVLTQSPGTLSLSPGERVTLSCRASQSVSATYFAWYQQKPGQPPRLLIYGASNRATGIPDRFSGSGSGTDFTLTISRLEPEDFAVYYCQQNGNSYTFGQGTILEIK
B2: Table 1 Line # 22 antibody (SP_B_cell) (antibody, human IgG4, V domains shown)
VH: B1 VH with D10G, T40I, R50G, A88V, S91T, T114A
VL: B1 VL with I2T, A31S, F34L, P44A, N92Y, N94S, I103K
B3: Table 1 Line # 38 antibody (SP_B_cell) (antibody, human IgG4, V domains shown)
VH: EVHLVESGGGLAKPGGSLRLSCTASGFTFSTYNLNWVRQAPGKGLEWVSYISRSSVYIYYADSLKGRFTISRDDAKNSLYLQMNSLRAEDTAVYYCVRDDYGDYVPLDYWGQGTLVTVSS
VL: AIQMTQSPSSLSASVGDRITITCRASQGISNDLGWYQQKPGKAPKLLIFAASSLQSGVLSRFSGSGSGTDFTLTISSLQPEDVATYFCLQDYNFPRTFGQGTKVEIK
B4: Table 1 Line # 30 antibody (SP_B_cell) (antibody, human IgG4, V domains shown)
VH: EVQLVESGGGMVQPGRSLRLSCAASGFTFDDYAMHWVRQAPGKGLEWVSGIKWNGGNIGYADSVKDRFTISRDNAKNSLFLQMNSLRAEDAALYSCAKDIGGSQYALDVWGQGTTVTVSS
VL: DIQMTQSPSSLSASVGDRVTITCRASLSIGSYLNWYQKKPGKAPKLLIFVASSLQGGVSSRFSGSGSGTDFTLTISSLQPEDFATYYCQQTYSTPFTFGPGTKVDIK
B5: Table 1 Line # 47 antibody (SP_Plasma_cell) (antibody, human IgG4, V domains shown)
VH: ELQLVESGGGLVQPGRSLRLSCAASGFPFDAYAMHWVRQAPGKGLQWVSGIRWNGGNIDYVDSVKGRFTISRDNAKNSLYLQLNSLRSEDTALYYCAKDLGGSHYALDVWGQGTMVTVSS
VL: DIQMTQSPSSLSASVGARVTITCRASQSINNDLNWYQQKPGKAPKFLIYAASSLQSGVPSRFSGRGSGTDFTLTIRSLQPEDFAVYYCQQTYSSPFTFGPGTKVDLK
B6: Table 1 Line # 50 antibody (SP_Plasma_cell) (antibody, human IgG4, V domains shown)
VH: EVKLLESGGGLVQPGGSLRLSCAASGFSFSTYAMNWVRQAPGKGLEWVSAITGSGGSTYYADSVKGRFTMSRDNSKNTLYLQMNSLRAEDTAVYYCAKDRRGAFDIGGQGTMVTVSS
VL: DIQMTQSPSSVSASVGDRVTITCRASQGISSWLAWYQQKPGKVPKFLIYAASNLQSGVPSRFSGSGSGTDFTLTISSLQPEDFATYYCQQANSFPFTFGPGTKVDIK
B7: Table 1 Line # 33 antibody (SP_B_cell) (antibody, human IgG4, V domains shown)
VH: EVQLLESGGGLVQPGGSLRLSCAASRFTFSNYEMNWVRQAPGKGLEWLSYINTSGTTIYYADSVKGRFTISRDNAKNSLYLQMNSLRAEDTAVYYCARVNWNSDAFDIWGQGTMVTVSS
VL: EIVMTQSPATLSVSPGERATLSCRASQIVGSNLAWYHQKPGQAPRLLIYSASTRATGIPARFSGSGSGTEFTLTISSLQSEDFAVYYCQQYNNWPPFTFGPGTKVDIK
B8: Table 1 Line # 48 antibody (SP_Plasma_cell) (antibody, human IgG4, V domains shown)
VH: EVQLVESGGVLVQPGRSLRLSCAASGFTFDDFAMHWVRQAPGKGLEWVSGISWNGNSIGYADSVKGRFTISRDNAKNSLYLQMNSLRTEDTALYYCAKDTSSWSYYYGMDVWGQGTTVTVSS
VL: DIQMTQSPSSLSASVGDRVTITCRASQGIRNDLGWYQQKPGKAPKRLIYAASNLQSGVPSRFSGSGSGTEFTFTISSLQPEDFATYYCLQHNSYPYTFGQGTKLEIK
B9: Table 1 Line # 40 antibody (SP_Plasma_cell) (antibody, human IgG4, V domains shown)
VH: QVQLQESGPGLVKPSETLSLTCTISGGSISTYYWSWIRQPPGKGLEWIGYIYYSGNTNYNPSLKSRVTISVDTSKNQFSLKLNSVTAADTAVYYCARHRGSYVYGMDVWGQGTTVTVSS
VL: DIQMTQSPSSLSASLVDRVTITCRASQTISSYLNWYQQKPGKAPKLLIYGASILQSGVPSRFSGSGSGTDFTLTISSLQPEDHAVYFCQQSYSSPTFGGGTKVEIK
B10: Table 1 Line # 18 antibody (BM_Plasma_cell) (antibody, human IgG4, V domains shown)
VH: EVQLVQSGAEVKKPGESLKISCKGSGYRFTTNWIGWVRQMPGKGLEWMGIIYPDDSDTRYSPSFQGQVTISADKSINTAYLHWNSLKSSDTAIYYCARGANWFDPWGQGTLVTVSS
VL: EIVLTQSPGILSLSPGKRATLSCRASQSVSSNFLAWYQQKPGQAPRLLIYGTSSRANGIPDRFSGSGSGTDFTLTISGLEPEDFAEYYCQQYGSSVTFGQGTRLEIK
B11: Table 1 Line # 3 antibody (BM_Plasma_cell) (antibody, human IgG4, V domains shown)
VH: EVQLVESGGGLVQPGRSLRLSCAASGFTFDDYAMHWVRQVTGKGLEWVSGINWNSGNIGYADSVRGRFTISRDNAKNSLYLQMNSLRAEDTALYYCAKDSGSSWYGYFDLWGRGTLVTVSS
VL: DIQMTQSPSTLSASVGDRVTITCRASQSISRWLAWYQQKPGKAPKFLIYKASSLESGVPSRFSGSGSGTEFTLTISSLQPDDFATYYCQQYNSDSRTFGQGTKVEIK
B12: Table 1 Line # 46 antibody (SP_Plasma_cell) (antibody, human IgG4, V domains shown)
VH: EVQLEASGGDLVQPGRSLRLSCAASGFIFDDFGMHWVRQAPGKGLEWVSGISWNGGHIGYADSVKGRFTISRDNAKNSLYLQMNSLRAEDTALYYCAKEHSSSWYGFFDFWGRGTLVTVSS
VL: DIQMTQSPSSLSASVGDRVTITCRASQGLSNSVAWYQQKPGQIPRLLISAAASLQSGVPSRFSGSGSGTDFTLTISRLQPEDVATYYCQNYNSAPRTFGQGTNVEIK
B13: Table 1 Line # 49 antibody (SP_Plasma_cell) (antibody, human IgG4, V domains shown)
VH: EVHLLESGGGFIQPGGSLRLSCAASGFTFSTYAMNWVRLAPGKGLEWVSTISGSGGFTSYTDSVQGRFTISRDNSKNKLYLQINNLTAEDTAVYYCAKDRRIVGATGFDYWGQGALVTVSS
VL: DIQMTQSPSSLSASAGDRVTITCRASQSISSYLNWYQQKPGKAPKLLIYAASSLQSGVPSRFSGSGSGTDFTLTISSLQPEDSATYYCQQSYGFHTFGQGTRLEIK
B14: Table 1 Line # 11 antibody (BM_Plasma_cell) (antibody, human IgG4, V domains shown)
VH: EVQLVESGGGLVQPGRSLRLSCAASGFTFDDYAMHWVRQAPGKGLEWVSGISWNSGSIGYADSVKGRFTISRDNAKNSLYLQMNSLRAEDTALYYCARDYSSAWYGYFDSWGQGTLVTVSS
VL: DIQMTQSPSSLSASVGDRVTITCRASQGINNYLAWYQQKPGKIPKLLIFTASTLQSGVPSRFSGSGSGTDFTLTINSLQPEDVATYYCQNYNSVPRTFGQGTKVEIK
B15: Table 1 Line # 12 antibody (BM_Plasma_cell) (antibody, human IgG4, V domains shown)
VH: QVQLVESGGGVVQPGRSLRLSCAASGFTFSSYGMHWVRQAPGKGLEWVSVISYDGSNKYYADSVKGRFTISRDNSKNTLFLQVNSLRAEDTAVYYCAKEGRTGFDYWGQGTLVTVSS
VL: B14 VL with S26R, N30S, Y36F, I43V, F49Y, T50A, N76S, N90K, V94A, R96W
B16: Table 1 Line # 15 antibody (BM_Plasma_cell) (antibody, human IgG4, V domains shown)
VH: B14 VH with G10A, T28A, S55G, G56A, I58L, V64L, A88S, Y94F, S110Y
VL: B14 VL with G28D, N30S, I43V, F49Y, T50A, N76S, E81Q
B17: Table 1 Line # 35 antibody (SP_B_cell) (antibody, human IgG4, V domains shown)
VH: EVQLVESGGGLVKPGGSLRLSCAASGFTFSSYSMNWVRQAPGKGLEWVSSISSSSSYIYYADSVKGRFTISRDNAKNSLYLQMNSLRAEDTAVYYCARDRSSSPLENWGQGTLVTVSS
VL: B6 VL with V43A, F46L, N53S, F96I, P100Q, K103R, V104L, D105E
B18: Table 1 Line # 1 antibody (BM_Plasma_cell) (antibody, human IgG4, V domains shown)
VH: EVQLVESGGGLVKPGGSLRLSCAASGFTFSSYSMNWVRQAPGKGLEWVSSISSSSSYIYYADSVKGRFTISRDNAKNSLYLQMNSLRAEDTAVYYCASLAARPFWGQGTMVTVSS
VL: B6 VL with K42R, V43A, F46L, N53S, F96L, P100G, D105E
B19: Table 1 Line # 37 antibody (SP_B_cell) (antibody, human IgG4, V domains shown)
VH: QVHLVESGGDVVQPGRSLRLSCAASGFTFSYYGMHWVRQAPFKGLEWVAVIWYDGSNKYYADSVKGRFTITRDNSKNTVYLQMNSLRAEDTAIYYCARWGGFGVTGTHLDYWGQGTLVTVSS
VL: DIQLTQSPSLLSASVGDRVTITCWASQDIAGHFAWYQQKPGTVPKLLIYAISTLDSGVPSRFSGSRSGTEFTLTISSLQPEDFATYYCQHLNSYPYTFGQGTKLEIK
B20: Table 1 Line # 53 antibody (SP_Plasma_cell) (antibody, human IgG4, V domains shown)
VH: EIQLVESGGGLVQPGRSLRLSCAASGFTFDDYAMHWVRQAPGKGLEWVSGINWNNGSLGYADSVKGRFTISRDNAKNSLYLQMNSLRTEDTALYYCVKDTGSWASYYGMDVWGHGTTVTVSS
VL: B8 VL with V15I, N53S, F73L
B21: Table 1 Line # 54 antibody (SP_Plasma_cell) (antibody, human IgG4, V domains shown)
VH: QVQLVQSGAEVKKPGASVKVSCKASGYTFTNYGISWVRQAPGQGLEWMGWISVYNGNTNYAQKLQGRVTMTTDTSTSTAYMEVRSLRSDDTAVYYCARGVNWNYVFDYWGQGTLVTVSS
VL: B8 VL with A50V, A51V, N53S, F73L, Y96W, L104V

target: human IL-4Rα (hIL-4Rα) monomeric protein (human) (UniProt P24394); experiment: barcoded-antigen count on source cell (scRNA-seq)

Binder | REGN560.L15 ab raw [counts]
B1 | 3560
B2 | 14000
B3 | 6050
B4 | 9180
B5 | 1520
B6 | 924
B7 | 7340
B8 | 1240

target: human IL-6Rα (hIL-6Rα), barcoded negative control antigen (human) (UniProt P08887); experiment: barcoded-antigen count on source cell (scRNA-seq)
Sequence (P08887 20-358 limits assumed): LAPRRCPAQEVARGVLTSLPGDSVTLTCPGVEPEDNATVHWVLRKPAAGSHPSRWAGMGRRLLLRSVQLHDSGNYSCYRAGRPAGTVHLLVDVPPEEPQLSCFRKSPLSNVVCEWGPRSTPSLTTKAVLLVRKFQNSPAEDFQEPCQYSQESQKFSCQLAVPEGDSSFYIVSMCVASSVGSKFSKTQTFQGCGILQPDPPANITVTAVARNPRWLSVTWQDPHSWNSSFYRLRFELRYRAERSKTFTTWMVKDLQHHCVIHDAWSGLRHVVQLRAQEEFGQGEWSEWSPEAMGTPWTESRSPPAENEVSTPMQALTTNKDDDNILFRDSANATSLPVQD

Binder | REGN78.L15 ab raw [counts]
B9 | 1
B10 | 55
B1 | 17
B2 | 5
B11 | 236
B12 | 2
B3 | 66
B4 | 179
B13 | 2
B14 | 115
B15 | 348
B16 | 158
B5 | 6
B17 | 33
B18 | 271
B19 | 60
B7 | 106
B8 | 17
B20 | 5
B21 | 26

— patent US20230349919A1
